Experimental data reported in US20060211075.

Columns and labels:
[1] = system: peptide 23, Dap-substituted pyrene derivative at Y+3
[2] = system: peptide 25, Dab-modified pyrene analogue at Y-2

Sequence of TrkA (chain, as listed by the source): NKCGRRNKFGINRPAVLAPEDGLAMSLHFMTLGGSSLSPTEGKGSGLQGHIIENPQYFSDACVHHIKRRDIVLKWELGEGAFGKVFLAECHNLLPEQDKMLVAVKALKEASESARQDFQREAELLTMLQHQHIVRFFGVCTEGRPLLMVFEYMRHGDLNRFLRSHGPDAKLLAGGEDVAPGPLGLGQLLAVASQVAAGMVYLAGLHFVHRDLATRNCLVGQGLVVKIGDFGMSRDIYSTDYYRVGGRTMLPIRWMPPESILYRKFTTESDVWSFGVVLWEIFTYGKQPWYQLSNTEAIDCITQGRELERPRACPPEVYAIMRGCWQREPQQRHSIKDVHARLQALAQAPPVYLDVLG
Sequence of Yes (chain, as listed by the source): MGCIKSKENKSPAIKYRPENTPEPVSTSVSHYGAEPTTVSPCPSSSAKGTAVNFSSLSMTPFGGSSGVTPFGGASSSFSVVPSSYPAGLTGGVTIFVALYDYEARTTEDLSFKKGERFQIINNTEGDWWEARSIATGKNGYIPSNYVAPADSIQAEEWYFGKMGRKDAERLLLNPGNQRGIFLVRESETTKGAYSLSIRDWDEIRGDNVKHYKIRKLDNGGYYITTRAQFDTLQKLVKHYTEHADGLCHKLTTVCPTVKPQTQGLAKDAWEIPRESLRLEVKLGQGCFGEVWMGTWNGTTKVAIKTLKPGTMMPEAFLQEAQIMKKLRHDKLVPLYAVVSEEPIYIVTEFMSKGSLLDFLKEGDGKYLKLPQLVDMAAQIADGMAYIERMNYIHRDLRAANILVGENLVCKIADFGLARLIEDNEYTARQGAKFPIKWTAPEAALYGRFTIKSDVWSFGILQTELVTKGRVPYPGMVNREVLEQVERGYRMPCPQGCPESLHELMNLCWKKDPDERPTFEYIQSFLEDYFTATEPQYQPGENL
Sequence of FynT (chain, as listed by the source): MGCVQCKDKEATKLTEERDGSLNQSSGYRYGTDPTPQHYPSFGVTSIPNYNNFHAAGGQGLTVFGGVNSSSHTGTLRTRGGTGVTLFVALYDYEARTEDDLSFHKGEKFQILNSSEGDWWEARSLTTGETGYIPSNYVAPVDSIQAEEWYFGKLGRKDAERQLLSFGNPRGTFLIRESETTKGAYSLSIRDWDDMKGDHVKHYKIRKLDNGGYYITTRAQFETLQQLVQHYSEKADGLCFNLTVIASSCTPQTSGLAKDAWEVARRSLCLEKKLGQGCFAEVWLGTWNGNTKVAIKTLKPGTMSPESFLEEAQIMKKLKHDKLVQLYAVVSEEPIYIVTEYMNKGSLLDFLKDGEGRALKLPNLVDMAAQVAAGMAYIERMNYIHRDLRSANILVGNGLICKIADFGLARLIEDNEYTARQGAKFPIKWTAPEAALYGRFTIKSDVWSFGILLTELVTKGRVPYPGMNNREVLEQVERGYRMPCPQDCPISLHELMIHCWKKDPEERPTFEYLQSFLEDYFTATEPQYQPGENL

EGF
phosphorylation of the peptide (fluorescence) [1]: unable to effectively catalyze the phosphorylation of either 23 or 25 | phosphorylation of the peptide (fluorescence) [2]: unable to effectively catalyze the phosphorylation of either 23 or 25

Fgr
Km [1]: 54 µM | Vmax [1]: 2.3 µmol/min/mg

FynT
Km [1]: 69 µM | Vmax [1]: 0.24 µmol/min/mg

LynA
Km [1]: 140 µM | Vmax [1]: 2.6 µmol/min/mg | Km [2]: 43 µM | Vmax [2]: 2.6 µmol/min/mg

TrkA
Km [1]: 350 µM | Vmax [1]: 1.1 µmol/min/mg

Yes
Km [1]: 37 µM | Vmax [1]: 3.3 µmol/min/mg
